In article PMC6104806 (Nature structural & molecular biology, 2018):
Where two headings read alike, the source gives them in different places.

Tests used:
SEC [1] = target: the molecule itself; experiment: SEC
SEC [2] = target: the molecule itself; experiment: SEC; remark: listed apart in the source

| Protein | stoichiometry N (SEC [1]) | stoichiometry N (SEC [2]) |
| --- | --- | --- |
| CmDnm1 (native), mitochondrial fission dynamin from Cyanidioschyzon merolae (natural protein, UniProt Q84Y91 1-768, looked up) MERLIPIVNKLQDLFAETGLDSPIDLPQIMVVGAQSSGKSSVLENVVGESIFPRGTGIVTRRPIVVQLYCTARERLNQSGAPDNMFNEDGSYVLSDGAPTDPRSIPPGAENQAYAEFLHKPGVRFYNFDDVRAEIERETDRVTGKNKGISPKAINLRVYSPHVVNLTVVDLPGLTKVPVGDQPSDIERLIRAMVLSYIERPNAIILAVHPATMDLATSDALQIARQADPEGRRTLGVITKLDLMDKGTDAMEMLTGKVIPLKLGYIGVICRGPADLRAGKSIQQAREDEIRFFRSHPVYRRLLPQLGTNTLARTLSTLLMKHIRDTLPSIRQKMSQQLAEWRKELQTLGPAFEGADDLGGALLNVINRYSSEFAKSLEGNSQQTVNTQELYGGARINYIFNDIYAKELQSMNAFEGLTREDIRTAIRNATGHRSPLFVPELAFELLVKKQITHFVPPAYSCVDLVYDELVRLALNCETELLQRYENLRSEILACAQNLLRELKQPCLEMVQNLIAMETSYISVNHKDFIGGNKAMSQLVRARMEEEERRTRSAKAANSTDNAANSAPKESNANDNRILQPRRRNQDENAKKNDDARRKDDKSPNKTDASNAEKDARSDRNPRGDPTMDNFFNEADEDEEDGNERRNRGLHTLPSVPEHLKAGEVSSDRDRDDIELIQTLLASYFDVVRVNMMDMVPKAIMSFLVLRARDRMQSRLVADLYKPERMSELLNESSDVAERRATAKRMVDLLQRGMAVINEVRDVHVKEEI | 4 | – |
| CmDnm1 GHRS431-434AAAA, self-assembly limiting stalk mutant (natural protein, Cyanidioschyzon merolae, UniProt Q84Y91 1-768, looked up) MERLIPIVNKLQDLFAETGLDSPIDLPQIMVVGAQSSGKSSVLENVVGESIFPRGTGIVTRRPIVVQLYCTARERLNQSGAPDNMFNEDGSYVLSDGAPTDPRSIPPGAENQAYAEFLHKPGVRFYNFDDVRAEIERETDRVTGKNKGISPKAINLRVYSPHVVNLTVVDLPGLTKVPVGDQPSDIERLIRAMVLSYIERPNAIILAVHPATMDLATSDALQIARQADPEGRRTLGVITKLDLMDKGTDAMEMLTGKVIPLKLGYIGVICRGPADLRAGKSIQQAREDEIRFFRSHPVYRRLLPQLGTNTLARTLSTLLMKHIRDTLPSIRQKMSQQLAEWRKELQTLGPAFEGADDLGGALLNVINRYSSEFAKSLEGNSQQTVNTQELYGGARINYIFNDIYAKELQSMNAFEGLTREDIRTAIRNATAAAAPLFVPELAFELLVKKQITHFVPPAYSCVDLVYDELVRLALNCETELLQRYENLRSEILACAQNLLRELKQPCLEMVQNLIAMETSYISVNHKDFIGGNKAMSQLVRARMEEEERRTRSAKAANSTDNAANSAPKESNANDNRILQPRRRNQDENAKKNDDARRKDDKSPNKTDASNAEKDARSDRNPRGDPTMDNFFNEADEDEEDGNERRNRGLHTLPSVPEHLKAGEVSSDRDRDDIELIQTLLASYFDVVRVNMMDMVPKAIMSFLVLRARDRMQSRLVADLYKPERMSELLNESSDVAERRATAKRMVDLLQRGMAVINEVRDVHVKEEI | – | 4 |
